Data published in patent publication US20080176209.

Test system: TL-3

Substance: FIV protease (Feline Immunodeficiency Virus protease)
- enzymatic reaction activity in a kinetic FRET assay with a fluorogenic substrate peptide over a 20 minute time course: the enzymatic activity was blocked by TL-3
